Laboratory results reported in a protein production outcome set (Wang et al. 2014).

Test: label from the status in PepcDB records

Sequence	protein production
MRYGFMKVAAAVPFVKVADCEYNIERIDRMVHEADAKGVEIMTFPELSITGYSCGDLFFQPFLQERANEALCRLVEQTANTTVMVIVGMPLRVEEKLFNSAVVFQQGKILGAIPKTYLPNYREFQEARWFSPAHTLQYSTISIGQHSVPIGRNLIFKCGTVGVGIEICEDMWTPFTPGTRLCLYGAEVIFNLSSSNENAGKHSYLRSLISGLSSQGICAYVYASSGYGESSTDIVFTGKAFIAEAGEIVEEMERFRYEERMIISDIDVSRIQTERLINSSFKAAVTFHTHDEKFNQLPFKLRSRQESLPMTRRVDRNPFMPEDKDRKERSREMINIQVCGLMQRLLHMGAEHAVIGISGGLDSALALIVCAQAFDRLDLPRKNIIAVTMPGFGTSDRTYRNAFALMEAIGVTIKEIDIKEACLRHFEAIGHNPEVQDTTFENTQARERTQILMNLANIYNAPVIGTGDLSELALGWVTYNGDHMSMYAVNAGIAKTTVQILVDHIAHSGWLDEAASAVLLDIVRTPISPELKPVGQDGNISQKTEDLVGPYELHDFFIYHFLHNEYKPSKIYYLAGVAFKGIYTKAEIKKWMMVFFRRFFAQQYKRNCMPDGPKVSCISLSPRGAWRMASDASSALWLDEIAKFETDLEHHHHHH	failed
MRYHGGLLLGAFDDDGKIIGMSFGYPGFRNGKLYLYSHMAGVVENKKYSNVGYSLKMKQRDLAASMGYDLIAWTFDPFNPLNAYFNISKLGAITRTYIKNFYGVMNDGINRGMRTDRVVAEWWI	failed
MRYIKFFKELNNKNVNLVGGKNASIGEMFQELVPIGIKVPDGFAITSEAYWYLLEQGGAKQKIIELLENVDATEIDVLKIRSKQIRELIFGTPFPSDLRDEIFQAYEILSQQYHMKEADVAVRSSATAEDLPDASFAGQQDTYLNIKGKTELIHYIKSCLASLFTDRAISYRASRGFDHLKVALSVGVQKMVRADKGSAGVMFSIDTETGFKDAVFITSAWGLGENVVGGTINPDEFYVFKPTLEQNKRPIIKRQLGNKTQKMVYAPRGSEHPTRNIKTTKKEWQSFSLSDEDVLILAKYAIEIEKHYSKEAKQYRPMDIEWAKDGESGEIFIVQARPETVQSQKSKEESQVFEKFKFKNPNEKKEIILQGRAIGSKIGSGKVRIINDLEHMNSFKEGEILVTDNTDPDWEPCMKKASAVITNRGGRTCHAAIVAREIGVPAIVGVSGATDSLYTGMEITVSCAEGEEGYVYAGIYEHEIERVELSNMQETQTKIYINIGNPEKAFGFSQLPNHGVGLARMEMIILNQIKAHPLALVDLHHKKSVKEKNEIENLMAGYANPKDFFVKKIAEGIGMISAAFYPKPVIVRTSDFKSNEYMRMLGGSSYEPNEENPMLGYRGASRYYSESYNEAFSWECEALALVREEMGLTNMKVMIPFLRTIEEGKKVLEILRKNNLESGKNGLEIYIMCELPVNVILADDFLSLFDGFSIGSNDLTQLTLGVDRDSELVSHVFDERNEAMLKMFKKAIEACKRHNKYCGICGQAPSDYPEVTEFLVKEGITSISLNPDSVIPTWNAVAKLEKELKEHGLTEH	failed
MRYLADHDDLTGLHNRRALLQHLDQRLAPGQPGPVAALFLDLDRLKAINDYLGHAAGDQFIHVFAQRIGDALVGESLIARLGGDEFVLIPASPMSADAAQPLAERLRDQLKDHVAIGGEVLTRTVSIGVASGTPGQHTPSDLLRRADQAALAAKHAGGDSVAIFTLEHHHHHH	failed
MRYLSKDILEEVITQRPSDSYKSNFGRVVLIGGNRQYGGAIIMSTEACINSGAGLTTVITDVKNHGPLHARCPEAMVVGFEETVLLTNVVEQADVILIGPGLGLDATAQQILKMVLAQHQKQQWLIIDGSAITLFSQGNFSLTYPEKVVFTPHQMEWQRLSHLPIEQQTLANNQRQQAKLGSTIVLKSHRTTIFHAGEPFQNTGGNPGMATGGTGDTLAGIIAGFLAQFKPTIETIAGAVYLHSLIGDDLAKTDYVVLPTKISQALPTYMKKYAQPHTAPDSELLEQKRSR	not failed
MRYRDNLKRSLKQAALAAGLLMTMSCAVRATPQDDLRSAVEYNRPALVQKLVAQGVDPNLDTRDGTPLLVDALKDKNIDVAEALIRAKGLDFERANAAGENALMMAAYQGLLPLVRLMVETYDVEVNKTGWTALHYAATNGHDAIVQYLLDHGAYIDAESPNGTTPLMMATMGGQITTVKLLLDEGADMNLRNQQKMDVIDFAKRYHQDEIAAGLESRRRKLAEPGAQPVPARQPAAPAGMRPAAPVVPDVPAPMPAPRAPESAIDRDATSGLPGSLSDQKTVPPPDLRGN	failed
MSAATKQQCCARAEVPVRNLHSCDVFGLPAGGAFGRPRRDKENDMSLGTIILIILIIALLGGFTGVGGGPFYGTGYYGGGGLGLVIVILLILLLLGKI	failed
MSAATPPFRDPQLPFAKRVDDLMSRLTLDEKTAFLHQFAPAVERLGIAPFRTGQEALHGVAWMGPATVFPQAVGLGATWNEELVRRVGEAVSKEARAMRARDDRVGLNVWSPTVNLLRHPLWGRNEEGYSEDPRLTSAVATAYTRGLRGDHPAYWRTAPVLKHWLAHNNETDRDTSSSSVRPRVLHEYDLRAFRDTVEAGAVAGVMPAYNLVNGRPNHLSPHLGRHLRTWTQEDLLVCSDAGAPSNLVDSEHYFDTHEEATAAALRAGVDSFTDHGTDSSKIVARVRGALEAGLLTEADVDAAVRRQLSVRFRLGEFDPENDPYSGAADTGADFDTPEHRALARDAAEQAVVLLKNDGVLPLAPETRVAVVGLLADECKLDWYSGTLIHRSTPLEGLYERFGADRVSFAEGVDRVRLRTADGRFLHVLPADDASAEAPGTEGALDPALLAGRTDLPPLTTDAVGTELALIDWGEGVLTLRASDGRYLSVAEDGFVRASADQPGGWVVQETFRLEPHDDGHLLRHTGTGRPVQVAADGVKVAAPDAAAGAAAGGAGSADAEVFELVVVERGEDAVTRVAAGADVVVVVAGNDPHINGRETEDRTTLRLPAQQERLLRAARAANPATVLALVSAYPYAVGVETLPAVLWTAHGGQAAGTALARILAGDVSPAGRLPQTWYSDDADLPGLLDYDVIGGRQTYLYFEGTPLFPFGHGLSYASFGYGDLTAQVRDGAVAVSFTVTNTGEVSADEVAQLYVRAEAPSVPRPRRELLAHRRLTLAPGASDRVSFEVPLSALAFWDVAHDRWRLEPGPYALLVGASSEDVRLTTTVTIDGEPAVPRPVGARGVQAVDFDEQSGTEIVDRTKAAGDAVAAVSGRTGELLYRDCDFGAGAAGVTVSVAGAGSVEVALDGGPAVAVLSPDAPTAGPYDYVELASAFTAEGVHDLRVTLRGALRLAHVGFSG	failed
MSADIVFDRGSPSDIDEIKTFTSNTWKVGYYTDLYSKLADTGTMDDYVDKVIERWVNDGSVYVLRVSGRPVATIHMEKLPDGSVMLGGLRVHPEYRGSRLGMSIMQETIQFLRGKTERLRSAVYSWNEPSLRLVHRLGFHQVEEYPIYTFQGGSTAVPALKPVNERYAGRWRCFFIDWKYMCSDDPDIIHEEYSNNLIVDGSTFVYFDIYEGGIDLFVNDSDDASSFIEKYRSMNGRITFYVRKALANGLPYVPASSLTVWEYRY	not failed
MSADSNSTDADPTAHWSFETKQIHAGQHPDPTTNARALPIYATTSYTFDDTAHAAALFGLEIPGNIYTRIGNPTTDVVEQRIAALEGGVAALFLSSGQAAETFAILNLAGAGDHIVSSPRLYGGTYNLFHYSLAKLGIEVSFVDDPDDLDTWQAAVRPNTKAFFAETISNPQIDLLDTPAVSEVAHRNGVPLIVDNTIATPYLIQPLAQGADIVVHSATKYLGGHGAAIAGVIVDGGNFDWTQGRFPGFTTPDPSYHGVVFAELGPPAFALKARVQLLRDYGSAASPFNAFLVAQGLETLSLRIERHVANAQRVAEFLAARDDVLSVNYAGLPSSPWHERAKRLAPKGTGAVLSFELAGGIEAGKAFVNALKLHSHVANIGDVRSLVIHPASTTHAQLSPAEQLATGVSPGLVRLAVGIEGIDDILADLELGFAAARRFSADPQSVAAF	not failed
MSAEKSISSDHVPLSDPALKTINRNAGRNLNHIAFISTLGGLLFGVDTGVINGAIGYMATPAELNLSPNNEGLVTSGITLGAAFGAVFAGHLSDRIGRKRLLKYLALLFFVCTLACSLAPNALFMIISRVLLGLAVGGASVIVPTYLSEISTPEIRGRLVTQNELMIVTGQLLAFIVNAILGNWFGHISNIWRYMIGFGMIPAVALFFGMMVVPESPRWLVMVNQLDNAFDSLRKIRSHPETCNEEITQIQDTLNQESEIKQATFKDLSTPWIRRLVFIGIGLGVMQQFIGINIMMYYGTTILTNSGFAHNAALIANIGNGLVSVIATFIGMSIMNRVNRRSMLIAGIIGTTTSLILIVGVSAFLSQSPLLPILVVLCTMMFLGFFQGFISPLVWLLLSEIFPQNLRGLGMGVSTFFLWFANFLVGYFFPILLSAVGMTWTFLIFVFFNILSFIFAYKYAPETRGKSLELIQMEFKYGDTTGINPEDK	failed
